Source: US20190359687A1 (Bayer, published 2019)
Each block holds one binder with its values, some of them ahead of it.

How the values were obtained:
[1] = biological target: T1, human glycophorin A on human red blood cells (human, UniProt P02724 20-150); assay: partition to human RBC, vWF deficient plasma, 30 min
T1 construct: whole, on cells; also called human GPA; huGPA
T1 sequence (looked up): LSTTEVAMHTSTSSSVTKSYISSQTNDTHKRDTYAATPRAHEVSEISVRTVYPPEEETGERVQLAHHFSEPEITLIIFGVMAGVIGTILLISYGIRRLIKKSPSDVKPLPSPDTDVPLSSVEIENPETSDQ

[2] = biological target: T1, human glycophorin A on human red blood …; assay: partition to human RBC, vWF deficient plasma, 15 min
[3] = biological target: T2, glycophorin A peptide GP5 (human, biotin at the N-terminus); assay: Octet, GP5 peptide on the probe, fusion protein in solution, 1:1 fit
T2 construct: Residues 42 to 61 of the human glycophorin A extracellular domain
T2 peptide: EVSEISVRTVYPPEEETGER

[4] = biological target: T3, Cynomolgus monkey glycophorin A on Cynomolgus monkey red blood cells (Cynomolgus monkey); assay: partition to Cyno RBC, human HemA plasma, 30 min;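 also: FVIII fusion spiked at 1 IU/mL into RBC suspension at whole-blood density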
T3 construct: whole, on cells; also called Cyno GPA; Cyno RBC
Procedure: (§1) To evaluate partition to cynomolgus monkey or human red blood cells, whole blood was draw from Cynomolgus monkey or normal human volunteers in to anticoagulant with 4% sodium citrate (Sigma, St Louis, Mo.). The red blood cells were purified by layering the whole blood on to ficoll followed by low speed centrifugation. The supernatant containing plasma, platelets and white blood cells was discarded and the red blood cell pellet was resuspended in 10 pellet volumes of PBS (50 mM Phosphate buffer, pH7.4, 150 mM NaCl). The red blood cells were then pelleted by slow speed centrifugation and the red blood cells re-suspended in 10 volumes of PBS. This washing step was repeated 4 more times and the red blood cells finally resuspended in a volume of plasma from Hemophilia patients with less than 1% of normal levels of FVIII (GeorgeKing Bio-Medical, Overland Park, Kans.) to generate a total volume equal to the initial blood volume such that the RBC density was equal to that of normal whole blood. BDD and RBC targeted FVIII molecules were then spiked into RBC suspension in HemA plasma at 1 IU/mL, and incubated at room temperature for 2-3 hours with gentle rotation. […] An additional control was performed in which BDD or RBC targeted FVIII molecules were added at 11U/ml into the same human hemophilia A plasma and incubated for 5 minutes and 180 mins. These samples were used to determine the input FVIII activity in the presence of plasma which was used to calculate the percentage of the molecule that was bound to RBC. All plasma samples were then assayed together for FVIII activity using the Coatest SP assay (DiaPharma, Columbus, Ohio). The assay was performed following the manufacturer's instructions in a 96-well plate format. […] The plate was incubated at 37° C. for 10 minutes with shaking between each reagent addition.

[5] = biological target: T3, Cynomolgus monkey glycophorin A on …; assay: partition to Cyno RBC, human HemA plasma, 60 min;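 also: FVIII fusion spiked at 1 IU/mL into RBC suspension at whole-blood density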
Procedure: as §1

[6] = biological target: T3, Cynomolgus monkey glycophorin A on …; assay: partition to Cyno RBC, human HemA plasma, 5 min;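 also: FVIII fusion spiked at 1 IU/mL into RBC suspension at whole-blood density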
Procedure: as §1

[7] = biological target: T1, human glycophorin A on human red blood …; assay: partition to human RBC, vWF deficient plasma, 5 min
[8] = biological target: T1, human glycophorin A on human red blood …; assay: partition to human RBC, vWF deficient plasma, 120 min
[9] = biological target: T3, Cynomolgus monkey glycophorin A on …; assay: partition to Cyno RBC, human HemA plasma, 1 min;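 also: FVIII fusion spiked at 1 IU/mL into RBC suspension at whole-blood density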
[10] = biological target: T3, Cynomolgus monkey glycophorin A on …; assay: partition to Cyno RBC, human HemA plasma, 15 min;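 also: FVIII fusion spiked at 1 IU/mL into RBC suspension at whole-blood density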
Procedure: as §1

[11] = biological target: T1, human glycophorin A on human red blood …; assay: partition to human RBC, vWF deficient plasma, 1 min
[12] = biological target: T1, human glycophorin A on human red blood …; assay: partition to human RBC, vWF deficient plasma, 60 min
[13] = biological target: T3, Cynomolgus monkey glycophorin A on …; assay: partition to Cyno RBC, human HemA plasma, 120 min;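 also: FVIII fusion spiked at 1 IU/mL into RBC suspension at whole-blood density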
[14] = biological target: T4, Cynomolgus monkey glycophorin A on Cynomolgus monkey red blood cells (Cynomolgus monkey); assay: FACS, Cyno RBC
T4 construct: whole, on cells; also called Cyno RBC; Cyno GPA
Procedure: (§2) Hybridomas were generated from the spleen cells of these mice and these hybriomas were screened first by fluorescence activated cell sorting (FACS) against isolated human and monkey (Cynomolgus monkey and Rhesus monkey) red blood cells (RBC) and then by ELISA against purified human glycophorin A protein (GPA). Isolated RBC were prepared from whole blood from normal human, cynomolgus monkey, and beagle dog, were anticoagulant with sodium heparin (Bioreclamation). 2-3 mL of whole blood was loaded gently on the top of 3 mL Ficoll Plus (Sigma Aldrich) then centrifuged at 500 g for 20 min at room temperature (RT). The RBC pellets were washed 3 times with 10 mL of PBS, and centrifuge 400 g for 10 min at RT. RBC pellets were re-suspended in PBS at the same total volume as the original blood volume to achieve the same RBC cell density as in whole blood and stored at 4° C. Purified human glycophorin A protein was obtained from Sigma Aldrich and coated on ELISA plates at 2 ug/ml. Binding of antibodies to human GPA was detected using appropriate secondary antibodies using methods well known in the art.

dog red blood cells [15] = biological target: T5, dog red blood cells (dog); assay: FACS, dog RBC
T5 construct: also called dog RBC
Procedure: as §2

[16] = biological target: T6, purified human glycophorin A protein (Sigma, cat # G5017) (human, UniProt P02724 20-150); assay: ELISA, hGPA
T6 construct: mature; also called Sigma hGPA; Sigma GPA
T6 sequence (looked up): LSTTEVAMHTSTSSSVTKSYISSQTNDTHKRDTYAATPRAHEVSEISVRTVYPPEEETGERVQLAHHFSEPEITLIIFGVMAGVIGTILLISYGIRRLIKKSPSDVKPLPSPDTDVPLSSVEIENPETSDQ

[17] = biological target: T7, human glycophorin A in the red blood cell membrane (human, UniProt P02724 20-150); assay: FACS, hu RBC
T7 construct: whole, on cells; used for intact RBC, isolated RBC membranes and transfected cells; the assay field tells which; also called GPA; hGPA
T7 sequence (looked up): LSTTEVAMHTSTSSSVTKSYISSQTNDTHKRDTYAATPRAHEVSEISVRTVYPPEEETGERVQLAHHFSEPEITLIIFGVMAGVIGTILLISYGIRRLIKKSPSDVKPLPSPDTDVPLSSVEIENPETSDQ
Procedure: as §2

dog red blood cells [18] = biological target: T5, dog red blood cells; assay: FACS, Dog RBC
[19] = biological target: T7, human glycophorin A in the red blood …; assay: FACS, Human RBC
[20] = biological target: T4, Cynomolgus monkey glycophorin A on …; assay: FACS, Cyno #3 RBC
[21] = biological target: T4, Cynomolgus monkey glycophorin A on …; assay: FACS, Cyno #2 RBC
[22] = biological target: T4, Cynomolgus monkey glycophorin A on …; assay: FACS, Cyno #1 RBC

B1: TPP-9049 FVIII-scFv fusion protein (other)
chain: ATRRYYLGAVELSWDYMQSDLGELPVDARFPPRVPKSFPFNTSVVYKKTLFVEFTDHLFNIAKPRPPWMGLLGPTIQAEVYDTVVITLKNMASHPVSLHAVGVSYWKASEGAEYDDQTSQREKEDDKVFPGGSHTYVWQVLKENGPMASDPLCLTYSYLSHVDLVKDLNSGLIGALLVCREGSLAKEKTQTLHKFILLFAVFDEGKSWHSETKNSLMQDRDAASARAWPKMHTVNGYVNRSLPGLIGCHRKSVYWHVIGMGTTPEVHSIFLEGHTFLVRNHRQASLEISPITFLTAQTLLMDLGQFLLFCHISSHQHDGMEAYVKVDSCPEEPQLRMKNNEEAEDYDDDLTDSEMDVVRFDDDNSPSFIQIRSVAKKHPKTWVHYIAAEEEDWDYAPLVLAPDDRSYKSQYLNNGPQRIGRKYKKVRFMAYTDETFKTREAIQHESGILGPLLYGEVGDTLLIIFKNQASRPYNIYPHGITDVRPLYSRRLPKGVKHLKDFPILPGEIFKYKWTVTVEDGPTKSDPRCLTRYYSSFVNMERDLASGLIGPLLICYKESVDQRGNQIMSDKRNVILFSVFDENRSWYLTENIQRFLPNPAGVQLEDPEFQASNIMHSINGYVFDSLQLSVCLHEVAYWYILSIGAQTDFLSVFFSGYTFKHKMVYEDTLTLFPFSGETVFMSMENPGLWILGCHNSDFRNRGMTALLKVSSCDKNTGDYYEDSYEDISAYLLSKNNAIEPRSFSQNPPVLKRHQREITRTTLQSDQEEIDYDDTISVEMKKEDFDIYDEDENQSPRSFQKKTRHYFIAAVERLWDYGMSSSPHVLRNRAQSGSVPQFKKVVFQEFTDGSFTQPLYRGELNEHLGLLGPYIRAEVEDNIMVTFRNQASRPYSFYSSLISYEEDQRQGAEPRKNFVKPNETKTYFWKVQHHMAPTKDEFDCKAWAYFSDVDLEKDVHSGLIGPLLVCHTNTLNPAHGRQVTVQEFALFFTIFDETKSWYFTENMERNCRAPCNIQMEDPTFKENYRFHAINGYIMDTLPGLVMAQDQRIRWYLLSMGSNENIHSIHFSGHVFTVRKKEEYKMALYNLYPGVFETVEMLPSKAGIWRVECLIGEHLHAGMSTLFLVYSNKCQTPLGMASGHIRDFQITASGQYGQWAPKLARLHYSGSINAWSTKEPFSWIKVDLLAPMIIHGIKTQGARQKFSSLYISQFIIMYSLDGKKWQTYRGNSTGTLMVFFGNVDSSGIKHNIFNPPIIARYIRLHPTHYSIRSTLRMELMGCDLNSCSMPLGMESKAISDAQITASSYFTNMFATWSPSKARLHLQGRSNAWRPQVNNPKEWLQVDFQKTMKVTGVTTQGVKSLLTSMYVKEFLISSSQDGHQWTLFFQNGKVKVFQGNQDSFTPVVNSLDPPLLTRYLRIHPQSWVHQIALRMEVLGCEAQDLYGGGSGGGGSGLVPRGSGGGSGGGGSGDIQLTQSPSFLSASVGDRVTITCRASSSVRYIYWFQQKPGKAPKLLIYATSFRQSGVPSRFSGSGSGTEYTLTISSLQPEDFATYYCHQRNSFPYTFGQGTKLEIKGGGGSGGGGSGGGGSGGGGSEVQLVQSGAEVKKPGASVKVSCKASGYTFTTYAIHWVRQAPGQGLEWMGYINPSSGYTRYNPKFKGRVTMTRDKSTSTAYMELRSLRSDDTAVYYCWTGTRDYWGQGTTVTVSS
notes: The entry is the mature protein; mostly a 2 chain molecule; also called BDD-C scFv; PPB 6733
percentage bound to human RBC [1]: 72.5% | percentage bound to human RBC [2]: 64.8% | Kd [3]: 2.4 nM | koff [3]: 0.00305 s⁻¹ | kon [3]: 1.27e+06 M⁻¹ s⁻¹ | % bound to Cyno RBC [4]: 67.5% | % bound to Cyno RBC [5]: 72.2% | % bound to Cyno RBC [6]: 48.2% | percentage bound to human RBC [7]: 48.5% | percentage bound to human RBC [8]: 80.3% | % bound to Cyno RBC [9]: 28.1% | % bound to Cyno RBC [10]: 62.1% | percentage bound to human RBC [11]: 24.6% | percentage bound to human RBC [12]: 77.8% | % bound to Cyno RBC [13]: 73.8%

B2: 12C6A6/A5 (antibody, V domains shown)
VH: QVQLQQSGAELARPGASVKMSCKASGYTFTRYSMHWVKQRPGQGLEWIGYINPGTYSTNYNQKFKDRATLTADKSSSTAYMQLNSLTSEDSAVYYCQTGTRDYWGQGTTLTVSS
VL: QIVLTQSPPIMSASPGEKVTITCSAASSVSYIYWFQQKPGTSPKLWIYSTSSLPSGVPTRFSGSGSGTSYSLTISRMEAEDAATYYCHQRSSYPFTFGSGTKLEIR
notes: as m8
FACS signal [14]: 7 relative flourescence units | FACS signal (dog red blood cells [15]): 0.96 relative flourescence units | EC50 [16]: 0.266 nM | FACS signal [17]: 2840 relative flourescence units

B6: 1H5B4/H12 (antibody, V domains shown)
VH: QVQLQQSGAELARPGASVKMSCKASGYTFTSYSIHWIKQRPGQSLEWIGYINPNSDYANYNQKFKDKATLTTDKSSTTAYMQLSSLTTDDSAVYYCQTGTRDYWGQGTTLTVSS
VL: DIVMTQSPSSLSVSAGEKVTMSCKSSQSLLNSGNQKNYLAWYQQKPGQPPKLLIYGASTRESGVPDRFTGSGSGTDFTLTISSVQAEDLAVYYCQNDHSYPYTFGGGTKLEIK
notes: as m8
FACS signal [14]: 0.93 relative flourescence units | EC50 [16]: 0.403 nM | FACS signal [17]: 1.05 relative flourescence units

B7: 1E4 scFv-Fc (Fc fusion)
scFv: QVQLQQSGAELARPGASVKMSCKASGYTFTRYSMHWVKQRPGQGLEWIGYINPGTYYTNYNQKFKDRATLTADKSSSTAYMQLNSLTSEDSAVYYCQTGTRDYWGQGTTLTVSSGGGGSGGGGSGGGGSQIVLTQSPPIMSASPGEKVTITCSAASSVSYIYWFQQKPGTSPKLWIYSTSSLPSGVPTRFSGSGSGTSYSLTISRMEAEDAATYYCHQRSSYPFTFGSGTKLEIRGGGGAGGGGCKPCICTVPEVSSVFIFPPKPKDVLTITLTPKVTCVVVDISKDDPEVQFSWFVDDVEVHTAQTQPREEQFNSTFRSVSELPIMHQDWLNGKEFKCRVNSAAFPAPIEKTISKTKGRPKAPQVYTIPPPKEQMAKDKVSLTCMITDFFPEDITVEWQWNGQPAENYKNTQPIMDTDGSYFVYSKLNVQKSNWEAGNTFTCSVLHEGLHNHHTEKSLSHSPGK
notes: as m18
FACS signal (dog red blood cells [18]): 1 Flourescent units | FACS signal [19]: 1720 Flourescent units | FACS signal [20]: 487 Flourescent units | FACS signal [21]: 453 Flourescent units | FACS signal [22]: 1 Flourescent units

Further binders by falling EC50 [16], results first:

FACS signal [14]: 272 relative flourescence units | FACS signal (dog red blood cells [15]): 1 relative flourescence units | EC50 [16]: 0.221 nM | FACS signal [17]: 2560 relative flourescence units
B3: 1E4A2/F8 (antibody, V domains shown)
VH: QVQLQQSGAELARPGASVKMSCKASGYTFTRYSMHWVKQRPGQGLEWIGYINPGTYYTNYNQKFKDRATLTADKSSSTAYMQLNSLTSEDSAVYYCQTGTRDYWGQGTTLTVSS
VL: QIVLTQSPPIMSASPGEKVTITCSAASSVSYIYWFQQKPGTSPKLWIYSTSSLPSGVPTRFSGSGSGTSYSLTISRMEAEDAATYYCHQRSSYPFTFGSGTKLEIR
notes: as m8

FACS signal [14]: 280 relative flourescence units | FACS signal (dog red blood cells [15]): 1.04 relative flourescence units | EC50 [16]: 0.192 nM | FACS signal [17]: 2860 relative flourescence units
B4: 10F1B10/F3 (antibody, V domains shown)
VH: QVQLLQSGAELARPGASVRISCKASGYTFTRYAMHWVKQRPGQGLEWIGYINPGTFSTNYNQKFKDRATLTADKSSSTAYMQLNSLTSEDSAVYYCQTGTRDYWGQGTTLTVSS
VL: QIVLTQSPPIMSASPGEKVTITCSAASSVSYIYWFQQKPGTSPKLWIYSTSSLPSGVPTRFSGSGSGTSYSLTISRMEAEDAATYYCHQRSSYPFTFGSGTKLEIR
notes: as m8

FACS signal [14]: 284 relative flourescence units | FACS signal (dog red blood cells [15]): 1.05 relative flourescence units | EC50 [16]: 0.159 nM | FACS signal [17]: 2860 relative flourescence units
B5: 8F9E9/F11 (antibody, V domains shown)
VH: QVQLQQSGAELARPGASVKMSCKASGYTFTSYSIHWIKQRPGQSLEWIGYINPNSDYANYNQKFKDKATLTTDKSSTTAYMQLSSLTTDDSAVYYCQTGTRDYWGQGTTLTVSS
VL: HIVLTQSPAIMSASPGEKVTIICSARSSVSYMYWFQQKPGTSPKLWIYATSSLPSGVPARFSGSGSGTSYSLTISRMEAEDAATYYCHQRSSYPYTFGSGTKLEIK
notes: as m8
